Test results from paper PMC10244696, “Thioredoxin TRXo1 is involved in ABA perception via PYR1 redox regulation” (Redox Biology, 2023).
Substitutions are numbered along the chain they refer to.

T1: PYR1 in Arabidopsis leaf extracts (Arabidopsis thaliana (endogenous in Col-0 leaves)), O49686
T1 chain: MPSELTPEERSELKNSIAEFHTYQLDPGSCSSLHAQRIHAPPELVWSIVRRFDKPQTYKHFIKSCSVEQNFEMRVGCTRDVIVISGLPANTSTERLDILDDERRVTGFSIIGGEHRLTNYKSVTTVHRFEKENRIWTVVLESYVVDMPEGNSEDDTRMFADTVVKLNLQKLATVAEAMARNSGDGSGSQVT

T2: recombinant HisAtPYR1 (Arabidopsis thaliana), O49686
T2 chain: T1 chain

B1: PYR1 in Arabidopsis leaf extracts, O49686 1-191 (receptor)
chain: T1 chain
B2: recombinant HisAtPYR1, O49686 1-191 (receptor)
chain: T1 chain
B3: HisAtPYR1C77S (receptor, Arabidopsis thaliana, UniProt O49686 1-191, looked up)
chain: T1 chain with C77S
notes: PYR1 of Arabidopsis thaliana (At4g17870) with Cys77 replaced by Ser; cloned in NcoI/EcoRI of pETM11; source: E. coli BL21, purified (Ni-NTA agarose)
B4: HisAtPYR1C65S (receptor, Arabidopsis thaliana, UniProt O49686 1-191, looked up)
chain: T1 chain with C65S
notes: PYR1 of Arabidopsis thaliana (At4g17870) with Cys65 replaced by Ser; cloned in NcoI/EcoRI of pETM11; source: E. coli BL21, purified (Ni-NTA agarose)
B5: HisAtPYR1C30S (receptor, Arabidopsis thaliana, UniProt O49686 1-191, looked up)
chain: T1 chain with C30S
notes: PYR1 of Arabidopsis thaliana (At4g17870) with Cys30 replaced by Ser; cloned in NcoI/EcoRI of pETM11; source: E. coli BL21, purified (Ni-NTA agarose)

Tests used:
[1] = biological target: T1, PYR1 in Arabidopsis leaf extracts …; assay: non-reducing SDS-PAGE and Western blot of oligomeric forms; leaf extracts of Arabidopsis, anti-PYR1; wild type extract without blocking or alkylating agent, also with 50 mM DTT or 4 mM H2O2 added; WT, KO and OEX Attrxo1 plants with or without 10 μM ABA for 48 h (extracts with 5 mM NEM); settings: remark: other sources report otherwise
[2] = biological target: T2, recombinant HisAtPYR1 (Arabidopsis …); assay: SDS-PAGE and Western blot of oligomeric forms; recombinant HisAtPYR1 or its Cys mutants in 20 mM Tris-HCl pH 7.9, untreated, with 4 mM H2O2, or 2 mM DTT and then 4 mM H2O2 (30 min, room temperature); 2.5 μg on SDS-PAGE, anti-AtPYR1; settings: remark: other sources report otherwise
[3] = biological target: the molecule itself; assay: as above

Binder	amount of dimers, fold of PYR1 [3]	also measured
B1	–	stoichiometry N [1]: 2
B2	–	stoichiometry N [2]: 2
B3	0.6 fold	–
B4	2.3 fold	–
B5	0.3 fold	–
